Target: GFP-BMB1 (Hibiscus green spot virus)
Test: FRET or BRET

Substance BMB2-mRFP (natural protein) has an FRET efficiency of 36% and a reduction of the GFP excited-state lifetime (FLIM) against the controls of 0.9 ns.
